According to patent US20140308678A1 (ONCOTHERAPY SCIENCE, published 2014):

Assays:
[1] = molecular target: T1, FLAG-HSP90AB1 (WT) (human, UniProt P08238 1-724); experiment: anti-FLAG immunoprecipitation from 293T cells, Western blot with anti-Cdc37 (FIG. 5D); the wild type is the reference
T1 construct: Expressed in cells together with HA-SMYD2 (so it may be methylated by SMYD2 in the assay); not shown: FLAG tag
Method: (§1) Then, cell lysates were immunoblotted with anti-FLAG, anti-SMYD2 and anti-ACTB (an internal control) antibodies. Part B depicts the results of immunoprecipitation analysis using 293T cells co-transfected with FLAG-Mock or FLAG-HSP90AB1 (WT) and HA-HSP90AB1 (WT or K531A/K574A) expression vectors in the presence of an HA-SMYD2 expression vector. Immunoprecipitation was performed using anti-FLAG^{(registered trademark)} M2 agarose beads, and samples were immunoblotted with anti-FLAG and anti-HA antibodies. Part C depicts the results of immunoprecipitation analysis using 293T cells co-transfected with FLAG-Mock or FLAG-HSP90AB1 (WT) and HA-HSP90AB1 (WT, K531A or K574A) expression vectors in the presence of an HA-SMYD2 expression vector. Immunoprecipitation was performed using anti-FLAG^{(registered trademark)} M2 agarose beads, and samples were immunoblotted with anti-FLAG and anti-HA antibodies. Part D and E depict that the methylation of K574 on HSP90AB1 is important for binding to some co-chaperones. 293T cells were transfected with FLAG-HSP90AB1 (WT) or FLAG-HSP90AB1 (K531A/K574A) (D), FLAG-Mock, FLAG-HSP90AB1 (WT), FLAG-HSP90AB1 (K531A) or FLAG-HSP90AB1 (K574A) (E) expression vectors, in the presence of an HA-SMYD2 expression vector. […]

[2] = molecular target: T2, FLAG-HSP90AB1 (K531A/K574A) (human, UniProt P08238 1-724); experiment: anti-FLAG immunoprecipitation from 293T cells, Western blot with anti-p23 (FIG. 5D)
T2 construct: Expressed in 293T cells in the presence of HA-SMYD2; also called K531A/K574A substitution of HSP90AB1; not shown: FLAG tag
Method: as §1

[3] = molecular target: T1, FLAG-HSP90AB1 (WT); experiment: anti-FLAG immunoprecipitation from 293T cells, Western blot with anti-p23 (FIG. 5D); the wild type is the reference
Method: as §1

[4] = molecular target: T3, FLAG-HSP90AB1 (K574A) (human, UniProt P08238 1-724); experiment: anti-FLAG immunoprecipitation from 293T cells, Western blot with anti-p23 (FIG. 5E)
T3 construct: Expressed in 293T cells in the presence of HA-SMYD2; not shown: FLAG tag
Method: as §1

T1 sequence (P08238 whole entry): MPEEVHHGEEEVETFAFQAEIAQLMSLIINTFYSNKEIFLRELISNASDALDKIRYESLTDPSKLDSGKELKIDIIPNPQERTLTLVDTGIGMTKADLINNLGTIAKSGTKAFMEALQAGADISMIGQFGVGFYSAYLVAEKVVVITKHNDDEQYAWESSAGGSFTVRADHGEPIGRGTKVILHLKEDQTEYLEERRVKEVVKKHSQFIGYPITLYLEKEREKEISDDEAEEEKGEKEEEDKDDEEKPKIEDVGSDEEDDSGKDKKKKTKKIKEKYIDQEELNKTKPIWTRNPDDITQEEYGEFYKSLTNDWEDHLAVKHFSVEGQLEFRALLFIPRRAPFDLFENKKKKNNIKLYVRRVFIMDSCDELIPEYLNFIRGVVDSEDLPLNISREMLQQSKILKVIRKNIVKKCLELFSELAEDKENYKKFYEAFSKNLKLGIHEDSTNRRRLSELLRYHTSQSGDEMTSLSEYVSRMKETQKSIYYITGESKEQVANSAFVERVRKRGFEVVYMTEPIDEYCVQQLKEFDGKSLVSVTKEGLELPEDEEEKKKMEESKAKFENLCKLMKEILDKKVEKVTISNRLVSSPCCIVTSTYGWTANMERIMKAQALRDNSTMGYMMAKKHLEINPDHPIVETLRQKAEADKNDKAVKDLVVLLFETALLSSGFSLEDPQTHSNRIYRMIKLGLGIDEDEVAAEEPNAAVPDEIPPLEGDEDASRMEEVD
T2 sequence (P08238 whole entry K531A/K574A): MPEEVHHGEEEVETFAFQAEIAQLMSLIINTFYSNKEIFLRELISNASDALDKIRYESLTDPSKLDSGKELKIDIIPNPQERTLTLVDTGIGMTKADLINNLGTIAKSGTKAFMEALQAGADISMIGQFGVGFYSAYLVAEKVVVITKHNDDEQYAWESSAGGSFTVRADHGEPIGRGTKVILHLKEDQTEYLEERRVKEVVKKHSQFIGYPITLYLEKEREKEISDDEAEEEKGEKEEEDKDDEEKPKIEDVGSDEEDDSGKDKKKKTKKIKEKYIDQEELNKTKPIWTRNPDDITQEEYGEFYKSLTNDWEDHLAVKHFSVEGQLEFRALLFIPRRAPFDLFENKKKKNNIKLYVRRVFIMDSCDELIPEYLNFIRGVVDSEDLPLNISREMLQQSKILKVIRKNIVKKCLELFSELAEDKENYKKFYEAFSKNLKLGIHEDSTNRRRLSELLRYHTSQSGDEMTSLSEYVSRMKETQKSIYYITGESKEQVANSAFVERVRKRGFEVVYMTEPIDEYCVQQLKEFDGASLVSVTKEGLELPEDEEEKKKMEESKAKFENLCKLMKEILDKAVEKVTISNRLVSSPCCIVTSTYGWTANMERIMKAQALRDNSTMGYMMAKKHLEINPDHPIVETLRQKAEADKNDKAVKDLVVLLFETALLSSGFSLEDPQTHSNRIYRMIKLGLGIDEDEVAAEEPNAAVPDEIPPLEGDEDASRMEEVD
T3 sequence (P08238 whole entry K574A): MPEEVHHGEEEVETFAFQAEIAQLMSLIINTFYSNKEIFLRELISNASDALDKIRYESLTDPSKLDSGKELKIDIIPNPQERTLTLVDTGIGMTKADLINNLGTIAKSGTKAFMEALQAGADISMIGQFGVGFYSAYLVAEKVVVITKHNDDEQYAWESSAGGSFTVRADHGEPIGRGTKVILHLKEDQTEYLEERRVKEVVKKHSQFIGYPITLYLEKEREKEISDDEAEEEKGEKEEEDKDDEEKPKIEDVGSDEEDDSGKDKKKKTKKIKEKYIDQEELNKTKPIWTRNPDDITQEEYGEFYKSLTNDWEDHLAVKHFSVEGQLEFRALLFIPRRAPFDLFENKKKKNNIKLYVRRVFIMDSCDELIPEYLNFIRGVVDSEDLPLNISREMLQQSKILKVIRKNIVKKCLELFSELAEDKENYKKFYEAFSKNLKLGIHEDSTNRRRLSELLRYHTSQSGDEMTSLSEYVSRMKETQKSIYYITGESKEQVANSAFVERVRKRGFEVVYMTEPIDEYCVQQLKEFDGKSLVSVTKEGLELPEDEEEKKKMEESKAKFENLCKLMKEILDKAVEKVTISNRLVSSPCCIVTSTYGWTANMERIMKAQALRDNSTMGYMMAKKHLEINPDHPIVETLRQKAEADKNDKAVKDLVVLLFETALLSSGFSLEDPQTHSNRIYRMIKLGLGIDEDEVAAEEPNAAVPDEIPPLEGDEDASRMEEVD

B1: Cdc37 (other, UniProt Q16543 1-378, looked up)
chain: MVDYSVWDHIEVSDDEDETHPNIDTASLFRWRHQARVERMEQFQKEKEELDRGCRECKRKVAECQRKLKELEVAEGGKAELERLQAEAQQLRKEERSWEQKLEEMRKKEKSMPWNVDTLSKDGFSKSMVNTKPEKTEEDSEEVREQKHKTFVEKYEKQIKHFGMLRRWDDSQKYLSDNVHLVCEETANYLVIWCIDLEVEEKCALMEQVAHQTIVMQFILELAKSLKVDPRACFRQFFTKIKTADRQYMEGFNDELEAFKERVRGRAKLRIEKAMKEYEEEERKKRLGPGGLDPVEVYESLPEELQKCFDVKDVQMLQDAISKMDPTDAKYHMQRCIDSGLWVPNSKASEAKEGEEAGPGDPLLEAVPKTGDEKDVSV
notes: Endogenous in 293T cell lysate
binding result [1]: binds

B2: p23 (other, UniProt Q15185 1-160, looked up)
chain: MQPASAKWYDRRDYVFIEFCVEDSKDVNVNFEKSKLTFSCLGGSDNFKHLNEIDLFHCIDPNDSKHKRTDRSILCCLRKGESGQSWPRLTKERAKLNWLSVDFNNWKDWEDDSDEDMSNFDRFSEMMNNMGGDEDVDLPEVDGADDDSQDSDDEKMPDLE
notes: as for B1
binding result [2]: binds | binding result [3]: binds | binding result [4]: binds
